Data taken from patent US20150232556A1.

Molecular target: KIR3DL2CD3ε fusion protein on Jurkat reporter cells (UniProt P43630)
Assay: cell-based or functional assay

Chain of KIR3DL2CD3ε fusion protein on Jurkat reporter cells (P43630 other isoform, or with tags, fused parts or gaps limits assumed): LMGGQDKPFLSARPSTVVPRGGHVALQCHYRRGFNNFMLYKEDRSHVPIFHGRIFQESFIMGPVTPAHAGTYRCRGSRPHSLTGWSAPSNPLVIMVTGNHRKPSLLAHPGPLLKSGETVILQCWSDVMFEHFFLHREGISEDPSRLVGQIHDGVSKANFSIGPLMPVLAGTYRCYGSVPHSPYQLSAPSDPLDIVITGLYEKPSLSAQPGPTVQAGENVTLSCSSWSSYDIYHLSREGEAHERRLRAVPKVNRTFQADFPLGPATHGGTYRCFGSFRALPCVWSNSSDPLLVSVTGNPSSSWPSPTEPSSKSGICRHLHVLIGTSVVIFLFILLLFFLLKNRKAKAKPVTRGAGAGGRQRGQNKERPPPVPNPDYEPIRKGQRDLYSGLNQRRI

IL-2 production by KIR3DL2CD3ε transduced Jurkat reporter cells (ELISA): 6 fold
Substance: HLA-B27 on transfected LCL.LBL.721.221 cells (ligand)
